Test results as given in US10259881 (dated 2019).
Positions count from the first letter of the chain named. Where two headings read alike, the source gives them in different places.

T1: murine CD137 (mouse, UniProt P20334)
T1 chain: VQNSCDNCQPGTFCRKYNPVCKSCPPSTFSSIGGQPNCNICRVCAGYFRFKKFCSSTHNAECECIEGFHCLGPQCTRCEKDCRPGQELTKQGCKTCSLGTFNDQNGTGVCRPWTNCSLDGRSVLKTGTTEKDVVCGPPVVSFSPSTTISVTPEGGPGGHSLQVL

B1: MSH1 (antibody, V domains shown)
VH: QMQLVQSGAEVKKPGASVKVSCKASGYNFGGYYMHWVRQAPGQGLEWMGWVNPHSGGTNYAQKFQGRVTITRDTSASTAYMELSSLRSEDTAVYYCAREGEAWGLDLDLWGQGTLVTVSS
VL: SYELTQPPSVSVAPGKTARITCGGNNIGSKSVHWYQQKPGQAPVLVIYYDSDRPSGIPERFSGSNSGNTATLTISRVEAGDEADYYCQVWDSSSVVFGGGTQLTVL
B2: MSB7 (antibody, V domains shown)
VH: B1 VH with N28S, G30S, H54M, E101M, W103M, G104R, D106E, L109K
VL: B1 VL
B3: MC8 (antibody, V domains shown)
VH: QMQLVQSGAEVKKPGASVKVSCKASGYMPDGYYMHWVRQAPGQGLEWMGWINPRTGGTNYAQKFQGRVTITRDTSASTAYMELSSLRSEDTAVYYCAREGAAFRLELDAWGQGTLVTVSS
VL: B1 VL
B4: MSC8 (antibody, V domains shown)
VH: B1 VH with H54K, W103V, L109Y
VL: B1 VL
B5: MD4 (antibody, V domains shown)
VH: B3 VH with M28N, P29W, D30T, R54M, T55A, A101W, F103R, R104G, L105V, A109M
VL: B1 VL
B6: MSA11 (antibody, V domains shown)
VH: B1 VH with N28S, G30T, H54K, E101W, W103R, G104R, L105I, L109E
VL: B1 VL
B7: MB12 (antibody, V domains shown)
VH: B1 VH with N28S, F29L, G30E, V51I, H54N, W103V, L109Y
VL: B1 VL
B8: MB3 (antibody, V domains shown)
VH: B1 VH with N28Q, F29M, G30R, V51I, H54N, W103V, L109Y
VL: B1 VL

Tests used:
[1] = molecular target: T2, human CD137 (human, UniProt Q07011); assay: SPR
[2] = molecular target: T2, human CD137; assay: SPR; remark: listed apart in the source
[3] = molecular target: T2, human CD137; assay: SPR; remark: listed apart in the source
[4] = molecular target: T1, murine CD137
[5] = molecular target: T2, human CD137; assay: SPR; remark: listed apart in the source

T2 sequence (Q07011 24-186): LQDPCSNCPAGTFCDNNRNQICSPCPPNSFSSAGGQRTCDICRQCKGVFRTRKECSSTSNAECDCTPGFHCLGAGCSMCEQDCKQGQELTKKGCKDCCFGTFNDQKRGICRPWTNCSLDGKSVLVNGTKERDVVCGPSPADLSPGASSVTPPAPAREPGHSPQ

Binder	Kd [1]	binding result [4]	other results
B1	87.8 nM		
B2	16.6 nM		
B3			Kd [2]: 30.2 nM
B4		no binding	Kd [3]: 218 nM
B5	8.9 nM		
B6			Kd [2]: 46.9 nM
B7		no binding	Kd [5]: 155 nM
B8		no binding	Kd [3]: 229 nM
